Target: T1, Lon (wildtype) (UniProt P0CAW0 1-799)
T1 sequence: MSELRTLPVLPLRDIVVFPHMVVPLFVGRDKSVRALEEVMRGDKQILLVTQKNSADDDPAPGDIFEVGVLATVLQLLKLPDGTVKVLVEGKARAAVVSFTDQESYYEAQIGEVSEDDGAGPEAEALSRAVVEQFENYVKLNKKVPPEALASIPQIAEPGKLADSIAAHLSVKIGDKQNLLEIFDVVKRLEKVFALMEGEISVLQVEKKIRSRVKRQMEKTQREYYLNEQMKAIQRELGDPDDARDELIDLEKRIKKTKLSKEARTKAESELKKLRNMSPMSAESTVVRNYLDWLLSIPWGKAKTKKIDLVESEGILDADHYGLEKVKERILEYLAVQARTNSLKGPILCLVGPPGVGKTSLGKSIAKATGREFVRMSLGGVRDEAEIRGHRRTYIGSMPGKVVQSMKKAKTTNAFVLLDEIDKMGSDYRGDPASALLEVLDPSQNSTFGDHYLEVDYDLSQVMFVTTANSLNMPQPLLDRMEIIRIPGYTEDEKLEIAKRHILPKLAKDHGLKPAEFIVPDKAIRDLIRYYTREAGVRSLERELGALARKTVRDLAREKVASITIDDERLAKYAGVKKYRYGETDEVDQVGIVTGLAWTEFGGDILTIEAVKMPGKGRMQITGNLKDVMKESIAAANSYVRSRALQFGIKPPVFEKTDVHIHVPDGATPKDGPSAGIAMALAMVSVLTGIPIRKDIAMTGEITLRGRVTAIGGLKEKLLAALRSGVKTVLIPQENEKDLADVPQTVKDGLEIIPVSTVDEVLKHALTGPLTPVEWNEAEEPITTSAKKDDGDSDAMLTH
Assay: fluorescence polarization

Question: AACGGATGATCCACAGGAGAGTCTGGCGCAGGGCGAGAG (ssDNA) [FAM-DNA oligo] was tested. Which Kd did it give?
Answer: 286 nM
